Measurements taken from patent publication US20230159654A1 (INTERNATIONAL DRUG DEVELOPMENT BIOTECH, published 2023).

Legend:
human Clq [1] = target: T1, human Clq (human, UniProt P02745 23-245; P02746 28-253; P02747 29-245); test: ELISA, MAb coated on plate, human Clq in solution, detected with anti-human Clq peroxidase conjugate
T1 construct: also called Clq complement; C1q
Protocol: (§1) The Binding of Human Clq to MAbs was assessed by an ELISA binding assay. The 96-well plates (Nunc) were coated overnight at 4° C. with varying MAb concentrations. After washing, the plates were blocked with PBS-5% BSA for 1 h, and incubated for 1 h with 0.2 μg/ml of recombinant human Clq (Abd Serotec) or 2.5 μl of natural human complement (Sigma). Then, 100 μl of a 1/500 dilution of sheep anti-human Clq peroxidase-conjugated Ab (Abd Serotec) added and incubated for 1 h. The plates were developed with 100 μl per well of TMB substrate (Uptima Interchim). After H₂SO₄ addition, the OD was measured at 450 nm/630 nmusing a MRX II microplate reader.

human Clq [2] = target: T1, human Clq; test: ELISA, MAb coated on plate, human Clq in solution, detected with anti-human Clq peroxidase conjugate; chR007 Fc0 is the weaker reference
Protocol: as §1

T1 sequence (P02745 23-245 limits assumed, chain 1 of 3): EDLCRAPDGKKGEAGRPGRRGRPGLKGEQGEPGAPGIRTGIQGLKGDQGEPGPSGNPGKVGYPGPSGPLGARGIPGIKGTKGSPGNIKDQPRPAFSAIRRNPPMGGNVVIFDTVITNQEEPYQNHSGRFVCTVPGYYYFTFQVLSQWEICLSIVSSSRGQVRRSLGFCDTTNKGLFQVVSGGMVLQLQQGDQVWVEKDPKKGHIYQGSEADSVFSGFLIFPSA
T1 sequence (P02746 28-253 limits assumed, chain 2 of 3): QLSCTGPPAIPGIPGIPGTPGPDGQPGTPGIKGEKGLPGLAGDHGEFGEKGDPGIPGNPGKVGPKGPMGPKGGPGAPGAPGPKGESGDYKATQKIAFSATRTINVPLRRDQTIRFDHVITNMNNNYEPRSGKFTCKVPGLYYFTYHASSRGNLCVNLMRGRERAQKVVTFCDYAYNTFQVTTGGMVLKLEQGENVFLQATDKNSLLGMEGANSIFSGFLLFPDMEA
T1 sequence (P02747 29-245 limits assumed, chain 3 of 3): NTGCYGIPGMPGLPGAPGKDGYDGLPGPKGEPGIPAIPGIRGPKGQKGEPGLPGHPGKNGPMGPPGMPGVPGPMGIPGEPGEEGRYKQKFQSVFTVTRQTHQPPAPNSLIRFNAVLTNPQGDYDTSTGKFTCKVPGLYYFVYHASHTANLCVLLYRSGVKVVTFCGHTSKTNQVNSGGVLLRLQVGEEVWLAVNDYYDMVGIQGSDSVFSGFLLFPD

B1: humanized 7Hz116 Fc24 (antibody, human IgG1, kappa, V domains shown)
VH: EVQLVESGGGLVQPGGSLKLSCAASGFTFSNYWMHWVRQASGKGLEWVAEIRSKANSYATAYAASVKGRFTISRDDSKNTAYLQMNSLKTEDTAVYYCTRDWEFAYWGQGTLVTVSS
VL: DIVMTQSPDSLAVSLGERATINCKSSQSVDNYGSSSLAWYQQKPGQPPKLLIYRASNLDSGVPDRFSGSGSGTDFTLTISSVQAEDVAVYYCQQSNEDLPYTFGQGTKLEIKR
binding result (human Clq [1]): binds

B2: chR007 Fc24 (antibody, human IgG1, kappa)
heavy: EVKLEESGGGLVQPGGSMKLSCVASGFTFSNYWMNWVRQSPEKGLEWVAEIRLKSNNYATHYAESVKGRFTISRDDSRSSVYLQMNNLRAEDTGIYYCTRDWEFAYWGQGTLVTVSSASTKGPSVFPLAPSSKSTSGGTAALGCLVKDYFPEPVTVSWNSGALTSGVHTFPAVLQSSGLYSLSSVVTVPSSSLGTQTYICNVNHKPSNTKVDKKVEPKSCDKTHTCPPCPAPELLGGPSVFLLPPKPKDTLMISRTPEVTCVVVDVSHEDPEVKFNWYVDGVEVHNAKTKPPEEQYNSTLRVVSLLTVLHQDWLNGKEYKCKVSNAALPAPIAKTISKAKGQPREPQVYTLPPSRDELTKNQVSLTCLVKGFYPSDIAVEWESNGQPENNYKTTPLVLDSDGSFFLYSKLTVDKSRWQQGNVFSCSVMHEALHNHYTQKSLSLSPGK
light: DIVLTQSPASLAVSLGQRATISCRTSESVDNYGSSSMNWFQQKPGQPPKLLIYRASNLDSGIPARFSGSGSRSDFTLTINPVEADDVATYYCQQSNEDLPYTFGGGTKLEIKRTVAAPSVFIFPPSDEQLKSGTASVVCLLNNFYPREAKVQWKVDNALQSGNSQESVTEQDSKDSTYSLSSTLTLSKADYEKHKVYACEVTHQGLSSPVTKSFNRGEC
notes: also called chimeric chR007 Fc24
binding result (human Clq [1]): binds

B3: chR007 Fc0 (antibody, human IgG1, kappa)
heavy: not shown
light: B2 light
notes: Chimeric anti-CD5 IgG1 with native human IgG1 Fc; also called native chimeric MAb chR007 Fc0
binding result (human Clq [2]): binds
